Substrate in data set [1]: NC(=O)c1ccc[n+]([C@@H]2O[C@H](COP(=O)(O)OP(=O)(O)OC[C@H]3O[C@@H](n4cnc5c(N)ncnc54)[C@H](OP(=O)(O)O)[C@@H]3O)[C@@H](O)[C@H]2O)c1
The data set can be described thus: purified protein. It is filed as biochemical, Thermotoga maritima. The settings on record: 2 mM 6-phosphogluconate, 50 mM Hepes pH 7.5, 5 mM Mg2+, 0.5 mM Mn2+, 80°C, varied: cofactor.

Substrate in data set [2]: NC(=O)c1ccc[n+]([C@@H]2O[C@H](COP(=O)(O)OP(=O)(O)OC[C@H]3O[C@@H](n4cnc5c(N)ncnc54)[C@H](O)[C@@H]3O)[C@@H](O)[C@H]2O)c1
As to the kind of experiment: purified protein. It is filed as biochemical, Thermotoga maritima. To be noted: 50-1000 μM NAD+, with 6-phosphogluconate, 80°C, varied: cofactor.

B1: T. maritima 6PGDH (Thermotoga maritima MSB8) (protein)
chain: MKSHIGLIGLAVMGQNLALNIARKGYKVSVYNRTAQRTEEFVKNRVTNEEIEPHYDIESFVKSLERPRKIILMVKAGKPVDDTISQLLPHLEPGDLIIDGGNSHYMDTERRFKELSEKGILFLGMGVSGGEYGALHGPSLMPGGSREAYNLVEEILLEIAAKTEDGPCCTYVGERSAGHFVKMVHNGIEYAIMQAIAEVYHIMRDVLSLSSEEMSSIFEEWNRGELSSFLVEITYKILRKKDEETGKPMVDVILDKAEQKGTGKWTSQAALDLGIPTPSINLAVVERVISHFKDIRTRLSKLYNKRRSATQGSEEFLRDLRNSLFFAMFMAFSQGMWLIAEASKEFGYGVSLSEVLRIWKGGCIIRAKLIDTLRRYISNENAYLLENEEVMNLLKGKIDSLKNILKASIENEIPVPVLSSSYNYFMSLTEERLPANLIQAQRDFFGAHTFERVDREGVFHINWEEGEIG
notes: full length, expressed in E. coli as CBM-intein-6PGDH fusion, tag removed by intein self-cleavage; 53 kDa
By Km is commonly meant the substrate concentration at which the rate is half of its maximum. As for B1, the Km in the data set “purified protein [1]” was found to be 10 µM; in the data set “purified protein [2]”, 380 µM.

Values taken from paper PMC2701922.
